B1: anti-CD137 antibody clone 31 (antibody, V domains shown)
VH: not shown
VL: QSALTQPASVSGSPGQSITISCTGTSSDVGAYNFVSWYQQRPGKAPELMIYDVSDRPSGVSNRFSGSKSGNTASLTISGLQTEDEADYYCSSYTSSITRYVFGTGTKVTVLG
B2: anti-CD137 antibody clone 54 (antibody, V domains shown)
VH: QVQLVQSGAEVKKPGSTVKVSCKASGGTFSSYAISWVRQAPGQGLEWMGRIIPILGIANYAQKFQGRVTITADKSTSTAYMELSSLRSEDTAVYYCASPPYYDSSGYYPLGAFDIWGQGTMVTVSS
VL: SYELTQPPSVSVSPGQTASITCSGDKLGEKYASWYQQKAGQSPILVIYQDSKRPSGIPERFSGSNSGNTATLTISGLQAGDEADYYCQAWDGSSTYVFGTGTKVTVFG

Biological target: recombinant human CD137-ECD-Fc (APBio Inc.) (human, UniProt Q07011 24-186)
Sequence (Q07011 24-186): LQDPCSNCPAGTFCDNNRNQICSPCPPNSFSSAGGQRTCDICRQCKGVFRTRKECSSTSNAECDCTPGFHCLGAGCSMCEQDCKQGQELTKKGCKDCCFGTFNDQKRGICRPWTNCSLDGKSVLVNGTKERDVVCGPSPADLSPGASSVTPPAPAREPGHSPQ
Experiment: ELISA

Binder	EC50 [nM]
B1	0.151
B2	0.184

— US20200407456A1 (published 2020)
